# Reference: patent US20210340516A1, “COMPOSITIONS CONTAINING ARGINASE 1 FOR THE TREATMENT OF NEUROVASCULAR AND RETINAL VASCULAR DISORDERS” (Augusta University Research Institute, Inc., priority 2020, published 2021)
# B1: PEG-A1: recombinant human arginase (rhArg) covalently attached to methoxy polyethylene glycol (mPEG-SPA; MW 5,000) via succinamide propionic acid (SPA) linker (protein, UniProt P05089 1-322, looked up)
# Arginase-1: MSAKSRTIGIIGAPFSKGQPRGGVEEGPTVLRKAGLLEKLKEQECDVKDYGDLPFADIPNDSPFQIVKNPRSVGKASEQLAGKVAEVKKNGRISLVLGGDHSLAIGSISGHARVHPDLGVIWVDAHTDINTPLTTTSGNLHGQPVSFLLKELKGKIPDVPGFSWVTPCISAKDIVYIGLRDVDPGEHYILKTLGIKYFSMTEVDRLGIGKVMEETLSYLLGRKKRPIHLSFDVDGLDPSFTPATGTPVVGGLTYREGLYITEEIYKTGLLSGLDIMEVNPSLGKTPEEVTRTVNTAVAITLACFGLAREGNHKPIDYLNPPK
# modifications: mPEG-SPA 5 kDa conjugate
# notes: recombinant human arginase (rhArg) covalently attached to methoxy polyethylene glycol (mPEG-SPA; MW 5,000) via succinamide propionic acid (SPA) linker
# How the values were obtained:
# [1] = test system: WT pups subjected to oxygen-induced retinopathy (OIR); test: OIR mouse model: morphometric analysis of vaso-obliteration and neovascularization on lectin-labeled retinal flat mounts; format: in vivo
# Excerpt: OIR mouse model: Wild type (WT) or heterozygous A1 knock out (A1^+/−) mice and their wild type (WT) littermates were subjected to oxygen induced retinopathy (OIR). Because deletion of both copies of A1 is lethal due to hyperammonemia, mice lacking 1 copy of A1 were used which is sufficient to dampen its activity (Zhang, et al., Am J Pathol, 175:891-902 (2009); Elms, et al., Diabetologia, 56:654-662 (2013); Patel, et al., Front Immunol, 4:173 (2014)). OIR was induced in newborn mice according to the protocol of Smith, et al. with some adjustments (Connor, et al., Nature Protocols, 4:1565-1573 (2009)). On P7 (postnatal day 7), mice were placed along with their dams in a hyperoxia (70% oxygen) chamber for up to 5 days, after which they were transferred back to room air on P12. The 70% oxygen concentration was used for experiments involving A1^+/− mice based on preliminary experiments showing intolerance of the A1^+/− mice to 75% oxygen treatment. Mice were sacrificed at various times and retinas were collected for analyses (FIG. 1A-1C). In all experiments, mice were compared to their littermate controls. Then data were pooled together to minimize variability between litters due to differences in litter size and weight gain (Kim, et al., Eye and Brain, 8:67-79 (2016)). These experiments were performed in accordance with the ARVO Statement for the Use of Animals in Ophthalmic and Vision Research, and were approved by the institutional animal care and use committee.
# Analysis of vaso-obliteration and neovascularization: Eyeballs were fixed in 4% paraformaldehyde (PFA) overnight. Retina flat-mounts were dissected and then blocked and permeabilized in phosphate-buffered saline (PBS) containing 10% goat serum and 1% Triton X-100 (Sigma-Aldrich) for 30 minutes. Retinas were then immunolabeled with Alex594-labeled Griffonia simplicifolia isolectin B4 (1:200; Invitrogen, Carlsbad, Calif.) overnight at 4° C. Retinas were flat-mounted in mounting medium (Vectashield; Vector Laboratories, Burlingame, Calif.) and images were captured using fluorescence microscopy (Axioplan 2, Carl Zeiss Vision Inc.). Areas of central capillary dropout (vaso-obliteration, VO) and vitreoretinal neovascular tufts (neovascularization, NV) were quantified in a masked fashion using ImageJ software (NIH, Bethesda, Md.) (Connor, et al., Nature Protocols, 4:1565-1573 (2009); Patel, et al., Am J Pathol, 184:3040-3051 (2014)). High-magnification images were acquired to perform vessel sprouting analysis. Vessel sprouts were counted as previously described Patel, et al., Am J Pathol, 184:3040-3051 (2014)).
# (§1) PBS was used as vehicle control. Pups were anesthetized before treatment by intraperitoneal (i.p.) injection of ketamine/xylazine mixture. Intravitreal injections were performed using a 36-gauge NanoFil needle mounted to a 10-μL Hamilton syringe (World Precision Instruments). Two treatment strategies were employed. […] The P9 time point was selected based on the fact that vaso-obliteration occurs within the first 48 hours of hyperoxia treatment (Connor, et al., Nature Protocols, 4:1565-1573 (2009); Lange, et al., Graefe's archive for clinical and experimental ophthalmology, 247:1205-1211 (2009); Gu, et al., Investigative ophthalmology & visual science, 43:496-502 (2002)).
# [2] = test system: OIR retinas (TNFα, IL-6, MCP1, iNOS, A1, FGF2, CNTF, IL-10 mRNA); test: OIR mouse model: qPCR of retinal inflammation markers and growth factors; format: in vivo
# Experimental: as §1
# However, variability was relatively high in the OIR retinas and this protective effect was statistically significant only for TNFα.
# [3] = Retinal ischemia-reperfusion (IR) injury: PEG-A1 penetration of the blood-retina barrier (anti-PEG Western blot, flat-mount immunolabeling); format: in vivo, mouse
# Experimental: (§2) Mouse retinal ischemia-reperfusion (IR) injury and traumatic optic neuropathy (TON) models: All experiments were performed in accordance with the ARVO Statement for the Use of Animals in Ophthalmic and Vision Research and were approved by the institutional animal care and use committee (Animal Welfare Assurance no. D16-00197). Wild-type (WT) C57BL/6J mice (10-12 weeks old) were anesthetized using ketamine/xylazine mixture then subjected to retinal ischemia-reperfusion (IR) injury or optic nerve crush (ONC) to model traumatic optic neuropathy (TON) as described in Shosha, et al., Cell death & disease, 7:e2483-e (2016) and Xu, et al., Frontiers in Neuroscience, 12:970 (2018). Mice were sacrificed at 24 hours or 7 days after by deep anesthesia followed by trans-cardial perfusion with PBS or thoracotomy and eyeballs were collected and fixed in 4% PFA for immunolabeling or retinas were extracted without fixation and homogenized in Radioimmunoprecipitation Assay (RIPA) lysis buffer for Western blotting.
# Western blotting: Western blotting on retina or brain was conducted as described in Fouda, A Y, et al., Cell death & Disease, 9:1001 (2018). Membranes were probed with anti-PEG (RevMAb Biosciences, 1:1000) and anti-albumin (Bethyl Laboratories, 1:5000). Uncropped blots are included in FIG. 22.
# Fluorescent immunolabeling: Retinal flat-mounts were permeabilized and immunolabeled with anti-PEG antibody (RevMAb Biosciences, 1:400) and co-stained with Alex594-labeled Griffonia simplicifolia isolectin B4 (1:200; Invitrogen) as described in Shosha, et al., Cell death & disease, 7:e2483-e (2016).
# Mice were deeply anesthetized and sacrificed 24 hours later by trans-cardial perfusion with PBS (FIG. 16A). […] These mice were sacrificed at day 7 without trans-cardial perfusion and retina flat-mounts were immunolabeled to show PEG distribution within the retina (FIG. 16D).
# PEG-A1 treatment in acute retinal and brain injury mouse models: A pharmaceutical grade of PEG-A1 was provided as a kind gift from Bio-Cancer Treatment International Limited (BCT, Hong Kong). […] Methoxy polyethylene glycol propionic acid (MW 5,000—Sigma, Catalog number 88908-1G-F) was used as vehicle control.
# [4] = Optic nerve crush (ONC) model: PEG-A1 penetration (Western blot, flat-mount immunolabeling); format: in vivo, mouse; details: Western blot at 24 hours, flat-mount immunolabeling at 7 days
# Experimental: as §2
# Western blotting: Western blotting on retina or brain was conducted as described in Fouda, A Y, et al., Cell death & Disease, 9:1001 (2018). Membranes were probed with anti-PEG (RevMAb Biosciences, 1:1000) and anti-albumin (Bethyl Laboratories, 1:5000). Uncropped blots are included in FIG. 22. […]
# [5] = human, in vivo; cited from earlier work
# [6] = intravitreal 6.8 ng in 0.5 μL at P12, analysis at P17
# [7] = OIR retinas, P13 or P17, not statistically significant
# [8] = OIR retinas, did not reach statistical significance
# [9] = 25 mg/kg i.p. at 3 hours after reperfusion, 24 hours, perfused
# [10] = 25 mg/kg i.p. at 3 hours and day 4, day 7, no perfusion
molecule,measurement,setting,value
B1,hyperoxia-induced vaso-obliteration (capillary dropout area),"[1]; intravitreal 6.8 ng in 0.5 μL at P7, hyperoxia, P9",does not affect
same,avascular area,[1]; [6],avascular area was reduced
same,endothelial tip cells (vessel sprouts) per field of view,[1]; [6],two-fold increase
same,neovascular tufts (pathological neovascularization),[1]; [6],reduced neovascular tufts
same,lectin-positive vitreal macrophages after OIR,"[1]; intravitreal PEG-A1, vs vehicle",increased
same,iNOS mRNA levels,[2]; OIR WT retinas,significantly reduced
same,A1 mRNA,[2]; OIR retinas,mRNA upregulation
same,FGF2 mRNA,[2]; OIR retinas,mRNA upregulation
same,IL-6 expression (qPCR),[2]; [7],reduced the expression
same,MCP1 expression (qPCR),[2]; [7],reduced the expression
same,TNFα expression (qPCR),"[2]; OIR retinas, P13 or P17, statistically significant",reduced the expression
same,CNTF mRNA,[2]; [8],mRNA upregulation
same,IL-10 mRNA,[2]; [8],mRNA upregulation
same,anti-PEG immunoreactivity in liver homogenates (Western blot),[3]; [9],strong band
same,"anti-PEG reactivity in retina homogenates, IR-injured retinas",[3]; [9],strong anti-PEG reactivity
same,"anti-PEG reactivity in retina homogenates, sham eyes",[3]; [9],faint anti-PEG reactive bands
same,"PEG distribution within the retina (flat-mount immunolabeling), IR-injured retinas",[3]; [10],more diffuse signal
same,"PEG distribution within the retina (flat-mount immunolabeling), sham retinas",[3]; [10],restricted to a vessel-like network
same,penetration into brain or sham contralateral retina/optic nerve after ONC,[4],not into the brain or sham contralateral retina/optic nerve
same,penetration into retina/optic nerve tissue after ONC,[4],effective penetration
same,safety and tolerability in humans,[5],safe and well-tolerated
